{"source": "patent US20230303994", "proteins": {"B1": {"name": "porcine trypsin variant S172A (SEQ ID NO: 2) (protein)", "chain": "IVGGYTCAANSIPYQVSLNSGSHFCGGSLINSQWVVSAAHCYKSRIQVRLGEHNIDVLEGNEQFINAAKIITHPNFNGNTLDNDIMLIKLSSPATLNSRVATVSLPRSCAAAGTECLISGWGNTKSSGSSYPSLLQCLKAPVLSDSSCKSSYPGQITGNMICVGFLEGGKDACQGDSGGPVVCNGQLQGIVSWGYGCAQKNKPGVYTKVCNYVNWIQQTIAAN"}, "B2": {"name": "trypsin variant SEQ ID NO: 108 (protein)", "chain": "B1 chain with F24R, S44P, G78P, R99A, R107T, K125C, Y131M, K170A, W193S"}, "B3": {"name": "trypsin variant SEQ ID NO: 24 (protein)", "chain": "B1 chain with F24R, K170Y, W193S"}, "B4": {"name": "trypsin variant SEQ ID NO: 41 (protein)", "chain": "B1 chain with F24R, Y131H, W193S"}, "B5": {"name": "trypsin variant SEQ ID NO: 115 (protein)", "chain": "B1 chain with F24R, S44P, D56H, R99N, R107T, K125S, Y131M, W193S"}, "B6": {"name": "trypsin variant SEQ ID NO: 109 (protein)", "chain": "B1 chain with F24R, D56H, R99N, R107T, K125C, Y131M, K170A, W193S"}, "B7": {"name": "trypsin variant SEQ ID NO: 18 (protein)", "chain": "B1 chain with F24R, K125S, W193S"}, "B8": {"name": "trypsin variant SEQ ID NO: 116 (protein)", "chain": "B1 chain with F24R, S44P, D56H, R99N, R107T, K125S, Y131M, K170A, W193S"}, "B9": {"name": "trypsin variant SEQ ID NO: 113 (protein)", "chain": "B1 chain with F24R, S44P, D56H, R99A, R107T, K125A, K170A, W193S"}, "B10": {"name": "trypsin variant SEQ ID NO: 110 (protein)", "chain": "B1 chain with F24R, D56H, G78P, R99H, K125C, Y131M, K170A, W193S"}, "B11": {"name": "trypsin variant SEQ ID NO: 117 (protein)", "chain": "B1 chain with F24R, S44P, D56H, R99N, R107T, K125A, Y131M, W193S"}, "B12": {"name": "trypsin variant SEQ ID NO: 119 (protein)", "chain": "B1 chain with F24R, S44P, D56H, R99A, R107T, K125A, Y131M, W193S"}, "B13": {"name": "trypsin variant SEQ ID NO: 14 (protein)", "chain": "B1 chain with F24R, R99H, W193S"}, "B14": {"name": "trypsin variant SEQ ID NO: 118 (protein)", "chain": "B1 chain with F24R, S44P, D56H, R99H, R107T, K125A, Y131M, K170A, W193S"}, "B15": {"name": "trypsin variant SEQ ID NO: 25 (protein)", "chain": "B1 chain with F24R, K170A, W193S"}, "B16": {"name": "trypsin variant SEQ ID NO: 111 (protein)", "chain": "B1 chain with F24R, S44P, D56H, G78P, R99H, R107T, K125S, K170A, W193S"}, "B17": {"name": "trypsin variant SEQ ID NO: 19 (protein)", "chain": "B1 chain with F24R, K125C, W193S"}, "B18": {"name": "trypsin variant SEQ ID NO: 4 (protein)", "chain": "B1 chain with F24R, R99A, W193S"}, "B19": {"name": "trypsin variant SEQ ID NO: 36 (protein)", "chain": "B1 chain with F24R, Y131M, W193S"}}, "note": "Changes are numbered by the printed parent chain. Numbers in names are those of the source.", "data": [{"target": "insulin glargine, P01308", "sequence (P01308 whole entry, looked up)": "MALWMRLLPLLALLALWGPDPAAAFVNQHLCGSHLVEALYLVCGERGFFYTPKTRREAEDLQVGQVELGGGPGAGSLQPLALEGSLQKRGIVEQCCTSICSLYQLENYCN", "values": [{"protein": "B1", "exopeptidase activity": "the concentration of insulin glargine is decreased over time"}]}, {"target": "pre-pro-human insulin", "units": {"Selectivity": "%"}, "values": [{"protein": "B1", "Activity PPI cleavage": "yes", "Selectivity": 62.1}, {"protein": "B2", "Activity PPI cleavage": "yes", "Selectivity": ">80"}, {"protein": "B3", "Activity PPI cleavage": "yes", "Selectivity": ">90"}, {"protein": "B4", "Activity PPI cleavage": "yes", "Selectivity": ">90"}, {"protein": "B5", "Activity PPI cleavage": "yes", "Selectivity": ">90"}, {"protein": "B6", "Activity PPI cleavage": "yes", "Selectivity": ">90"}, {"protein": "B7", "Activity PPI cleavage": "yes", "Selectivity": ">90"}, {"protein": "B8", "Activity PPI cleavage": "yes", "Selectivity": ">90"}, {"protein": "B9", "Activity PPI cleavage": "yes", "Selectivity": ">90"}, {"protein": "B10", "Activity PPI cleavage": "yes", "Selectivity": ">90"}, {"protein": "B11", "Activity PPI cleavage": "yes", "Selectivity": ">90"}, {"protein": "B12", "Activity PPI cleavage": "yes", "Selectivity": ">90"}, {"protein": "B13", "Activity PPI cleavage": "yes", "Selectivity": ">90"}, {"protein": "B14", "Activity PPI cleavage": "yes", "Selectivity": ">90"}, {"protein": "B15", "Activity PPI cleavage": "yes", "Selectivity": ">90"}, {"protein": "B16", "Activity PPI cleavage": "yes", "Selectivity": ">80"}, {"protein": "B17", "Activity PPI cleavage": "yes", "Selectivity": ">90"}, {"protein": "B18", "Activity PPI cleavage": "yes", "Selectivity": ">90"}, {"protein": "B19", "Activity PPI cleavage": "yes", "Selectivity": ">90"}]}, {"target": "pre-pro-insulin glargine", "units": {"Purity Insulin Glargine": "area %", "Yield": "%", "desArg": "area %", "desThr": "area %"}, "values": [{"protein": "B1", "Purity Insulin Glargine": 53.6, "Yield": 65, "desArg": 19.1, "desThr": 5.2}, {"protein": "B2", "Purity Insulin Glargine": 88.8, "Yield": "> 90", "desArg": 0.8, "desThr": 0.7}, {"protein": "B3", "Purity Insulin Glargine": 82.3, "Yield": "> 80", "desArg": "< 0.5", "desThr": 2.8}, {"protein": "B4", "Purity Insulin Glargine": 82.8, "Yield": "> 90", "desArg": "< 0.5", "desThr": 1.9}, {"protein": "B5", "Purity Insulin Glargine": 83.5, "Yield": "> 90", "desArg": 0.8, "desThr": 0.6}, {"protein": "B6", "Purity Insulin Glargine": 85.9, "Yield": "> 80", "desArg": 0.7, "desThr": 0.5}, {"protein": "B7", "Purity Insulin Glargine": 82.6, "Yield": "> 80", "desArg": "< 0.5", "desThr": 1.9}, {"protein": "B8", "Purity Insulin Glargine": 82.7, "Yield": "> 90", "desArg": 0.5, "desThr": 0.6}, {"protein": "B9", "Purity Insulin Glargine": 86.1, "Yield": "> 90", "desArg": 0.5, "desThr": 1.7}, {"protein": "B10", "Purity Insulin Glargine": 90.6, "Yield": "> 90", "desArg": 0.9, "desThr": 0.6}, {"protein": "B11", "Purity Insulin Glargine": 85, "Yield": "> 90", "desArg": 0.6, "desThr": 0.8}, {"protein": "B12", "Purity Insulin Glargine": 85.2, "Yield": "> 90", "desArg": 0.6, "desThr": 1}, {"protein": "B13", "Purity Insulin Glargine": 84.5, "Yield": "> 90", "desArg": "< 0.5", "desThr": 2.4}, {"protein": "B14", "Purity Insulin Glargine": 87.6, "Yield": "> 90", "desArg": 0.6, "desThr": 1}, {"protein": "B15", "Purity Insulin Glargine": 80.4, "Yield": "> 80", "desArg": "< 0.5", "desThr": 2.8}, {"protein": "B16", "Purity Insulin Glargine": 85.9, "Yield": "> 90", "desArg": 0.7, "desThr": 2.6}, {"protein": "B17", "Purity Insulin Glargine": 81, "Yield": "> 80", "desArg": "< 0.5", "desThr": 3.3}, {"protein": "B18", "Purity Insulin Glargine": 86.4, "Yield": "> 90", "desArg": "< 0.5", "desThr": 2.9}, {"protein": "B19", "Purity Insulin Glargine": 87.6, "Yield": "> 90", "desArg": "< 0.5", "desThr": 1.5}]}]}
